Data on three molecules can be found in US20250243243A1 (HONG KONG UNIVERSITY OF SCIENCE AND TECHNOLOGY, published 2025).

Where no end group is shown, it is not given here.

The target in one experiment is T1, GST (UniProt P08515 1-218 = GST).
T1 construct: Control protein purified from E. coli; also called GST alone; purified GST
Briefly: pull-down on beads carrying peptides of the predicted first luminal loop of SURF4, purified prey, anti-GST immunoblot.

For another experiment, the target named is T2, ShhN^1-198-HA (mouse, UniProt Q62226 25-198).
T2 construct: also called ShhN-HA; not shown: C-terminal 3xHA tag
T2 sequence (Q62226 25-198): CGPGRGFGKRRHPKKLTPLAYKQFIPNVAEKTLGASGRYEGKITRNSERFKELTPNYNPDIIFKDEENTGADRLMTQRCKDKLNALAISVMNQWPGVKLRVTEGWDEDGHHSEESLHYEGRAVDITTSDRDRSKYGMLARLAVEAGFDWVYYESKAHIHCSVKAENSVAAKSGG
Briefly: quantification of the co-immunoprecipitation (n=3). An excerpt:
FIG. 3D. […] FIG. 3E. […] FIG. 3F. […] FIG. 3G. […] FIG. 3O.

For a further experiment, the target named is T3, CW peptides (KRRHPKKC) (C-terminal cysteine added for coupling to thiopyridone-Sepharose 6B beads (pull-down)).
T3 construct: CW motif of Shh (mouse residues 33-39, human 32-38) plus an added C-terminal Cys; On beads in the pull-downs, free in solution in ITC; also called Cardin-Weintraub peptide; synthetic CW peptides
T3 peptide: KRRHPKKC
Briefly: ITC, 500 µM CW peptide injected into 50 µM GST-SURF4 (49-60), one set of sites model.

T1 sequence (P08515 whole entry): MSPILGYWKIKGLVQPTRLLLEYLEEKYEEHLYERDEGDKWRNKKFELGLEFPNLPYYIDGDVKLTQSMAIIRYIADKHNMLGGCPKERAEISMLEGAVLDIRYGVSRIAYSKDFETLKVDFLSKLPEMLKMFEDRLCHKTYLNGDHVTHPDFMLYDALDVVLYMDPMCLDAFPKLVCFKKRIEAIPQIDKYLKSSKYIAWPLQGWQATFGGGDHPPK
Procedure for CW peptides (KRRHPKKC): We utilized a commercial isothermal titration calorimeter (PEAQ-ITC system, MicroCal, Malvern Panalytical, United Kingdom) to perform titration experiments. […] During each ITC experiment, 19 injections of CW peptide into the calorimetric cell were carried out while duration of each injection was 4 s and the time between the injections was 150 s. The volume of each injection was 2 μL and the stirring speed was maintained at 750 rpm. Control experiments such as peptide to buffer and buffer to protein titrations were also done to account for non-specific interactions and heat of dilution. The binding constant (Kd) was derived by fitting the data with one set of site model using the MicroCal PEAQ-ITC analysis software.

B1: SURF4 luminal peptides (SEQRDYIDTTWNC) (peptide)
peptide: SEQRDYIDTTWNC
modifications: not fully specified (residue 13)
notes: Immobilised on beads as bait; also called SURF4^49-61 peptides; SURF4 peptide
For B1, the binding result with GST is on record as “no binding”.

B2: SURF4^ED-AA-Myc (receptor)
chain: GQNDLMGTAEDFADQFLRVTKQYLPHVARLCLISTFLEDGIRMWFQWSAQRAYIATTWNCGYLLASSFVFLNLLGQLTGCVLVLSRNFVQYACFGLFGIIALQTIAYSILWDLKFLMRNLALGGGLLLLLAESRSEGKSMFAGVPTMRESSPKQYMQLGGRVLLVLMFMTLLHFDASFFSIVQNIVGTALMILVAIGFKTKLAALTLVVWLFAINVYFNAFWTIPVYKPMHDFLKYDFFQTMSVIGGLLLVVALGPGGVSMDEKKKEW
notes: SURF4-3xMyc with E50, D53 and D56 changed to alanine; also called Myc-tagged SURF4^ED-AA; not shown: C-terminal 3xMyc tag
Take B2: in the experiment with ShhN^1-198-HA, the binding result is “binds”.

B3: GST-SURF4^49-60 (other)
chain: {GST}-SEQRDYIDTTWN
modifications: also: GST tag linker not given here
notes: Purified from E. coli; also called N-terminal GST-tagged SURF4^49-60; GST-tagged SURF4^49-60; not shown: glutathione S-transferase (GST) tag, N-terminal
Regarding B3, the Kd with CW peptides (KRRHPKKC) amounted to 2350 nM.
